Measured values reported in paper PMC3531487, “An Allele of an Ancestral Transcription Factor Dependent on a Horizontally Acquired Gene Product” (PLoS Genetics, 2012).
Positions count from the first letter of the chain named.

Target: the molecule itself
Assay: SEC; analytical gel filtration; PmrA (50 µM) phosphorylated with pGEX-PmrBc T156R beads, 100 µl applied individually to Superdex 200 10/300 GL at 4°C in 1× TBS/1 mM MgCl2/1 mM DTT/10% glycerol, 0.5 ml/min, A280; monomer to dimer

B1: phosphorylated PmrA (G211) protein from S. enterica serovar Typhimurium (natural protein)
chain: MKILIVEDDTLLLQGLILAAQTEGYACDGVSTARAAEHSLESGHYSLMVLDLGLPDEDGLHFLTRIRQKKYTLPVLILTARDTLNDRITGLDVGADDYLVKPFALEELHARIRALLRRHNNQGESELTVGNLTLNIGRHQAWRDGQELTLTPKEYALLSRLMLKAGSPVHREILYNDIYNWDNEPSTNTLEVHIHNLRDKVGKSRIRTVRGFGYMLVATEES
modifications: phosphorylated (PmrA-P; phospho-Asp, residue number not given)
notes: PmrA, response regulator of the PmrA/PmrB two-component system, S. enterica serovar Typhimurium 14028s; glycine at position 211; In gel filtration a mixture of monomer and dimer; probably the whole 222-residue protein; also called PmrA-P; PmrA-H6
Dimer: Monomer (ratio of peak heights, A280): 0.29
stoichiometry N: 2

B2: phosphorylated PmrA (E211) protein from S. enterica serovar Paratyphi B (natural protein)
chain: B1 chain with G211E
modifications: phosphorylated (PmrA-P; phospho-Asp, residue number not given)
notes: PmrA, response regulator of the PmrA/PmrB two-component system, natural allele of S. enterica serovar Paratyphi B (SPV) SARA46; differs from the S. typhimurium PmrA by a single amino acid, glutamate instead of glycine at position 211; also called PmrA-H6
Dimer: Monomer (ratio of peak heights, A280): 0.11
stoichiometry N: 2
